# The Human Domainome abundance scans (Beltran et al. 2025)
# ± gives the uncertainty stated by the source.
# Test: abundance fitness (aPCA) (normalised: wild type 0, dead -1); higher = more abundant; growth selection in yeast, the domain comes from the species named
# Details: Homo sapiens
row,Substance,abundance fitness
1,"E3 ubiquitin-protein ligase NEDD4-like G207M, Q96PU5",-0.27 ± 0.067
2,"E3 ubiquitin-protein ligase NEDD4-like P196H, Q96PU5",-0.413 ± 0.097
3,"E3 ubiquitin-protein ligase NEDD4-like H222E, Q96PU5",-0.013 ± 0.083
4,"E3 ubiquitin-protein ligase NEDD4-like N213K, Q96PU5",-0.752 ± 0.18
5,"E3 ubiquitin-protein ligase NEDD4-like D228E, Q96PU5",0.062 ± 0.09
6,"E3 ubiquitin-protein ligase NEDD4-like N216R, Q96PU5",-0.239 ± 0.065
7,"E3 ubiquitin-protein ligase NEDD4-like R217K, Q96PU5",0.087 ± 0.091
8,"E3 ubiquitin-protein ligase NEDD4-like L226D, Q96PU5",-0.023 ± 0.088
9,"E3 ubiquitin-protein ligase NEDD4-like Y210F, Q96PU5",-0.255 ± 0.1
10,"E3 ubiquitin-protein ligase NEDD4-like R223T, Q96PU5",-0.393 ± 0.094
11,"E3 ubiquitin-protein ligase NEDD4-like N216I, Q96PU5",0.014 ± 0.079
12,"E3 ubiquitin-protein ligase NEDD4-like K202I, Q96PU5",-0.193 ± 0.13
13,"E3 ubiquitin-protein ligase NEDD4-like D204I, Q96PU5",-1.04 ± 0.17
14,"E3 ubiquitin-protein ligase NEDD4-like V203H, Q96PU5",0.016 ± 0.11
15,"E3 ubiquitin-protein ligase NEDD4-like P191K, Q96PU5",0.024 ± 0.076
16,"E3 ubiquitin-protein ligase NEDD4-like P196K, Q96PU5",-0.402 ± 0.11
17,"E3 ubiquitin-protein ligase NEDD4-like P191R, Q96PU5",-0.167 ± 0.061
18,"E3 ubiquitin-protein ligase NEDD4-like D228W, Q96PU5",-0.419 ± 0.064
19,"E3 ubiquitin-protein ligase NEDD4-like V229R, Q96PU5",-0.016 ± 0.061
20,"E3 ubiquitin-protein ligase NEDD4-like P194H, Q96PU5",-0.094 ± 0.073
21,"E3 ubiquitin-protein ligase NEDD4-like N216P, Q96PU5",-0.147 ± 0.089
22,"E3 ubiquitin-protein ligase NEDD4-like V229H, Q96PU5",-0.263 ± 0.1
23,"E3 ubiquitin-protein ligase NEDD4-like P224Y, Q96PU5",-1.18 ± 0.095
24,"E3 ubiquitin-protein ligase NEDD4-like P191Y, Q96PU5",-0.432 ± 0.14

row,Substance,abundance fitness
1,"E3 ubiquitin-protein ligase NEDD4-like P193C, Q96PU5",0.042 ± 0.095
2,"E3 ubiquitin-protein ligase NEDD4-like L226H, Q96PU5",-0.065 ± 0.065
3,"E3 ubiquitin-protein ligase NEDD4-like S230P, Q96PU5",-0.027 ± 0.085
4,"E3 ubiquitin-protein ligase NEDD4-like G207L, Q96PU5",-0.432 ± 0.052
5,"E3 ubiquitin-protein ligase NEDD4-like D204H, Q96PU5",-0.684 ± 0.14
6,"E3 ubiquitin-protein ligase NEDD4-like Y210I, Q96PU5",-0.379 ± 0.07
7,"E3 ubiquitin-protein ligase NEDD4-like S184E, Q96PU5",-0.507 ± 0.49
8,"E3 ubiquitin-protein ligase NEDD4-like P196V, Q96PU5",-0.184 ± 0.056
9,"E3 ubiquitin-protein ligase NEDD4-like R223S, Q96PU5",-0.154 ± 0.061
10,"E3 ubiquitin-protein ligase NEDD4-like D228P, Q96PU5",0.099 ± 0.07
11,"E3 ubiquitin-protein ligase NEDD4-like D228Q, Q96PU5",-0.277 ± 0.085
12,"E3 ubiquitin-protein ligase NEDD4-like P193Q, Q96PU5",-0.21 ± 0.098
13,"E3 ubiquitin-protein ligase NEDD4-like P192Y, Q96PU5",-0.31 ± 0.068
14,"E3 ubiquitin-protein ligase NEDD4-like L190N, Q96PU5",-0.031 ± 0.087
15,"E3 ubiquitin-protein ligase NEDD4-like L190Y, Q96PU5",-0.094 ± 0.088
16,"E3 ubiquitin-protein ligase NEDD4-like D204S, Q96PU5",-0.037 ± 0.064
17,"E3 ubiquitin-protein ligase NEDD4-like E200Q, Q96PU5",-0.072 ± 0.11
18,"E3 ubiquitin-protein ligase NEDD4-like R208E, Q96PU5",0.047 ± 0.083
19,"E3 ubiquitin-protein ligase NEDD4-like S184G, Q96PU5",-0.476 ± 0.11
20,"E3 ubiquitin-protein ligase NEDD4-like N213V, Q96PU5",-0.88 ± 0.13
21,"E3 ubiquitin-protein ligase NEDD4-like N215W, Q96PU5",-0.293 ± 0.069
22,"E3 ubiquitin-protein ligase NEDD4-like L190I, Q96PU5",0.125 ± 0.1
23,"E3 ubiquitin-protein ligase NEDD4-like Q185Y, Q96PU5",0.011 ± 0.11
24,"E3 ubiquitin-protein ligase NEDD4-like H214I, Q96PU5",-0.005 ± 0.078

row,Substance,abundance fitness
1,"E3 ubiquitin-protein ligase NEDD4-like H186W, Q96PU5",-1.24 ± 0.064
2,"E3 ubiquitin-protein ligase NEDD4-like D204Q, Q96PU5",-0.668 ± 0.077
3,"E3 ubiquitin-protein ligase NEDD4-like E188G, Q96PU5",-1.07 ± 0.49
4,"E3 ubiquitin-protein ligase NEDD4-like D228K, Q96PU5",-0.002 ± 0.079
5,"E3 ubiquitin-protein ligase NEDD4-like Q187F, Q96PU5",0.041 ± 0.07
6,"E3 ubiquitin-protein ligase NEDD4-like R208N, Q96PU5",0.225 ± 0.11
7,"E3 ubiquitin-protein ligase NEDD4-like R208I, Q96PU5",-0.504 ± 0.12
8,"E3 ubiquitin-protein ligase NEDD4-like E188V, Q96PU5",0.297 ± 0.2
9,"E3 ubiquitin-protein ligase NEDD4-like S230I, Q96PU5",-0.274 ± 0.13
10,"E3 ubiquitin-protein ligase NEDD4-like P193N, Q96PU5",-0.25 ± 0.11
11,"E3 ubiquitin-protein ligase NEDD4-like Q185E, Q96PU5",-0.534 ± 0.097
12,"E3 ubiquitin-protein ligase NEDD4-like S225Y, Q96PU5",-0.395 ± 0.12
13,"E3 ubiquitin-protein ligase NEDD4-like V212H, Q96PU5",-0.207 ± 0.12
14,"E3 ubiquitin-protein ligase NEDD4-like Y210E, Q96PU5",-0.516 ± 0.082
15,"E3 ubiquitin-protein ligase NEDD4-like N215T, Q96PU5",-0.118 ± 0.095
16,"E3 ubiquitin-protein ligase NEDD4-like L206I, Q96PU5",-0.159 ± 0.13
17,"E3 ubiquitin-protein ligase NEDD4-like Y211W, Q96PU5",-0.244 ± 0.078
18,"E3 ubiquitin-protein ligase NEDD4-like L195A, Q96PU5",-0.072 ± 0.22
19,"E3 ubiquitin-protein ligase NEDD4-like S225H, Q96PU5",-0.264 ± 0.14
20,"E3 ubiquitin-protein ligase NEDD4-like L190P, Q96PU5",-0.479 ± 0.067
21,"E3 ubiquitin-protein ligase NEDD4-like D228I, Q96PU5",-0.474 ± 0.12
22,"E3 ubiquitin-protein ligase NEDD4-like E200V, Q96PU5",-0.179 ± 0.084
23,"E3 ubiquitin-protein ligase NEDD4-like P191E, Q96PU5",-0.086 ± 0.07
24,"E3 ubiquitin-protein ligase NEDD4-like H222W, Q96PU5",-0.218 ± 0.071

row,Substance,abundance fitness
1,"E3 ubiquitin-protein ligase NEDD4-like Q187V, Q96PU5",-0.233 ± 0.06
2,"E3 ubiquitin-protein ligase NEDD4-like M227Y, Q96PU5",-0.184 ± 0.082
3,"E3 ubiquitin-protein ligase NEDD4-like H222G, Q96PU5",-0.07 ± 0.06
4,"E3 ubiquitin-protein ligase NEDD4-like E189Y, Q96PU5",0.16 ± 0.1
5,"E3 ubiquitin-protein ligase NEDD4-like P194G, Q96PU5",-0.05 ± 0.059
6,"E3 ubiquitin-protein ligase NEDD4-like P192S, Q96PU5",-0.201 ± 0.082
7,"E3 ubiquitin-protein ligase NEDD4-like G207H, Q96PU5",-0.171 ± 0.066
8,"E3 ubiquitin-protein ligase NEDD4-like P193I, Q96PU5",-0.079 ± 0.052
9,"E3 ubiquitin-protein ligase NEDD4-like T218S, Q96PU5",-0.236 ± 0.07
10,"E3 ubiquitin-protein ligase NEDD4-like L206K, Q96PU5",0.126 ± 0.11
11,"E3 ubiquitin-protein ligase NEDD4-like E201Q, Q96PU5",-0.228 ± 0.12
12,"E3 ubiquitin-protein ligase NEDD4-like V212I, Q96PU5",-0.356 ± 0.12
13,"E3 ubiquitin-protein ligase NEDD4-like V229D, Q96PU5",0.019 ± 0.068
14,"E3 ubiquitin-protein ligase NEDD4-like V203D, Q96PU5",-0.143 ± 0.073
15,"E3 ubiquitin-protein ligase NEDD4-like P194E, Q96PU5",-0.103 ± 0.072
16,"E3 ubiquitin-protein ligase NEDD4-like V229G, Q96PU5",0.036 ± 0.057
17,"E3 ubiquitin-protein ligase NEDD4-like E201R, Q96PU5",-0.209 ± 0.057
18,"E3 ubiquitin-protein ligase NEDD4-like G198V, Q96PU5",-0.291 ± 0.062
19,"E3 ubiquitin-protein ligase NEDD4-like S230K, Q96PU5",-0.186 ± 0.092
20,"E3 ubiquitin-protein ligase NEDD4-like E201W, Q96PU5",-0.423 ± 0.065
21,"E3 ubiquitin-protein ligase NEDD4-like N205E, Q96PU5",-0.105 ± 0.05
22,"E3 ubiquitin-protein ligase NEDD4-like L226P, Q96PU5",0.104 ± 0.059
23,"E3 ubiquitin-protein ligase NEDD4-like P194I, Q96PU5",-0.294 ± 0.1
